In series [1] the test system is T1, O=C[C@H](O)[C@@H](O)[C@H](O)CO.
T1 construct: made in house; host or cells: E. coli K514
Briefly: purified protein, by the assay type. It counts as biochemical, Actinoplanes missouriensis. The settings on record: other: xylose, 35° C., 10 mM Mg2+, pH 7.5. On the procedure:
Alternatively, the D-fructose produced during the isomerization reaction can be determined enzymatically using sorbitol dehydrogenase and NADH.
As a measure of specificity the quotient is Vmax /Km is sometimes used (Wells et al., ibid). […] These temperatures are chosen for practical reasons.
Activities were measured on purified enzyme. The coupled sorbitol dehydrogenase assay was used for xylose, the cysteine-carbazole or discontinuous sorbitol dehydrogenase method was used for glucose.

Series [2] has as its system O=C[C@H](O)[C@@H](O)[C@H](O)CO. Briefly: purified protein, by the assay type. The settings on record: pH 7.5.

Data on eight substances can be found in patent US5310665A, “Glucose isomerases having altered substrate specificity” (Gist-brocades, N.V., priority 1990, dated 1994).

Actinoplanes missouriensis glucose isomerase, wild type, SEQ ID NO: 1 (Actinoplanes missouriensis 431), sequence (chain, as listed by the source): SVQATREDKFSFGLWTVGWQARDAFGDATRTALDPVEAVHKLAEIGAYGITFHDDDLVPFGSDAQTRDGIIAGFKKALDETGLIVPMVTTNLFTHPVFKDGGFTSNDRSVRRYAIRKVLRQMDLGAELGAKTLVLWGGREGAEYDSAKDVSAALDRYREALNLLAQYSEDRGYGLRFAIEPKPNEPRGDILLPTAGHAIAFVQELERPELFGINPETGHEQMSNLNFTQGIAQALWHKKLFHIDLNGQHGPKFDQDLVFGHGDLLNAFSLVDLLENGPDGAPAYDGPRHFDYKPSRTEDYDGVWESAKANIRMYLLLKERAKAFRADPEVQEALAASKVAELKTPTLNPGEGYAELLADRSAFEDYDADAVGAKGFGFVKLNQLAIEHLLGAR
Actinoplanes missouriensis glucose isomerase variant M88SH290N (M88S/H290N) (Actinoplanes missouriensis 431; H290N/M88S), sequence (chain, as listed by the source M88S H290N H290N M88S): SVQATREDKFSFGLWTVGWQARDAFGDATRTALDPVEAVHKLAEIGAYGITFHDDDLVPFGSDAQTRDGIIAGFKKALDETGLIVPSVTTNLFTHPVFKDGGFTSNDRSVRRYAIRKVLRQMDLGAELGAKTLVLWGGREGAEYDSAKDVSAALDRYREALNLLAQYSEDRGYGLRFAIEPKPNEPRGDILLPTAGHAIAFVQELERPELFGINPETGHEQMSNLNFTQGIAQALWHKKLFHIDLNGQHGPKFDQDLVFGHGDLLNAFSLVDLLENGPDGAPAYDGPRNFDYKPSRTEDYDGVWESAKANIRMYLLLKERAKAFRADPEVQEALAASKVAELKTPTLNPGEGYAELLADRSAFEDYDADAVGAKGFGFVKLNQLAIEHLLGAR
Actinoplanes missouriensis glucose isomerase variant M88SH243N (M88S/H243N) (Actinoplanes missouriensis 431; H243N/M88S), sequence (chain, as listed by the source M88S H243N H243N M88S): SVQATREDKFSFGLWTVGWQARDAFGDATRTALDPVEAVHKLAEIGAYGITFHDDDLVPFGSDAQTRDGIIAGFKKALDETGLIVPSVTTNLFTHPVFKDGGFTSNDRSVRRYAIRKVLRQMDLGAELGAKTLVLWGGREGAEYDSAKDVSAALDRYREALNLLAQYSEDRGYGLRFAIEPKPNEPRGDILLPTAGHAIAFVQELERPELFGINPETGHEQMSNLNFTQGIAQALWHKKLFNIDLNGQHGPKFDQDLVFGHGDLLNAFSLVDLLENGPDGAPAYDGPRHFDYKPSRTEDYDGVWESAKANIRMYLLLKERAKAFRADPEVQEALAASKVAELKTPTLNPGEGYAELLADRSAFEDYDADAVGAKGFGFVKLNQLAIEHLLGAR
Actinoplanes missouriensis glucose isomerase variant V135Q (Actinoplanes missouriensis 431; V135Q), sequence (chain, as listed by the source V135Q V135Q): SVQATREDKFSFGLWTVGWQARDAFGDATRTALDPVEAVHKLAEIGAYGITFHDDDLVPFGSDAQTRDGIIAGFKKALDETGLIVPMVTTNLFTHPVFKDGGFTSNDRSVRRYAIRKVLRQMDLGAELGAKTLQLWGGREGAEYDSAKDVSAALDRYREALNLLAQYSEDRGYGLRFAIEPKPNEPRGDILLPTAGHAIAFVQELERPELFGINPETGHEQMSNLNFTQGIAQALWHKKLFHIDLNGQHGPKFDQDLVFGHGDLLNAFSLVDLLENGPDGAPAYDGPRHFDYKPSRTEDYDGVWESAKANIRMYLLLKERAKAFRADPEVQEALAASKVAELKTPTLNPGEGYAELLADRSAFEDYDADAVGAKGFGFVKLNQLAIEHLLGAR
Actinoplanes missouriensis glucose isomerase variant H290N (Actinoplanes missouriensis 431; H290N), sequence (chain, as listed by the source H290N H290N): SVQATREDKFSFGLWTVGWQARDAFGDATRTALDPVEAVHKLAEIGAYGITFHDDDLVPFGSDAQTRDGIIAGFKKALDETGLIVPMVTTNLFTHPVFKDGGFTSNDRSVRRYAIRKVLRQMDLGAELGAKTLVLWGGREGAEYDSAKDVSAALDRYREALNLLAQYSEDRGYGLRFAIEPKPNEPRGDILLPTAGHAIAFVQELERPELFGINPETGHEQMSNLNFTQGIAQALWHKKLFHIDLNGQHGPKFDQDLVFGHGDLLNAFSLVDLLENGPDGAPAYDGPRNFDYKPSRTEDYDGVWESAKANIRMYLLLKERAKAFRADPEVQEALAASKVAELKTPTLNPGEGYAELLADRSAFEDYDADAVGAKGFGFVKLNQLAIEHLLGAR
Actinoplanes missouriensis glucose isomerase variant A25K (Actinoplanes missouriensis 431; A25K), sequence (chain, as listed by the source A25K A25K): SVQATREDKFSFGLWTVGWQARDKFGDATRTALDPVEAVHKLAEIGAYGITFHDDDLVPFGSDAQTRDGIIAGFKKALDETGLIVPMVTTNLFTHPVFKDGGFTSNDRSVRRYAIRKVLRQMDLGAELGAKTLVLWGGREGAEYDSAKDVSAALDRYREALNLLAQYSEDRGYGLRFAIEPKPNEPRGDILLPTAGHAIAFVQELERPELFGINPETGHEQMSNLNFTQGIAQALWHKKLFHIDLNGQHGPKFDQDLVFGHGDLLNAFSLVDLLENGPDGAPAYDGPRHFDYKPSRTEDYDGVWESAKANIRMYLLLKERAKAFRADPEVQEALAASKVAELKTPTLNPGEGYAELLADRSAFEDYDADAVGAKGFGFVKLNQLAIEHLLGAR
Actinoplanes missouriensis glucose isomerase variant M88S (Actinoplanes missouriensis 431; M88S), sequence (chain, as listed by the source M88S M88S): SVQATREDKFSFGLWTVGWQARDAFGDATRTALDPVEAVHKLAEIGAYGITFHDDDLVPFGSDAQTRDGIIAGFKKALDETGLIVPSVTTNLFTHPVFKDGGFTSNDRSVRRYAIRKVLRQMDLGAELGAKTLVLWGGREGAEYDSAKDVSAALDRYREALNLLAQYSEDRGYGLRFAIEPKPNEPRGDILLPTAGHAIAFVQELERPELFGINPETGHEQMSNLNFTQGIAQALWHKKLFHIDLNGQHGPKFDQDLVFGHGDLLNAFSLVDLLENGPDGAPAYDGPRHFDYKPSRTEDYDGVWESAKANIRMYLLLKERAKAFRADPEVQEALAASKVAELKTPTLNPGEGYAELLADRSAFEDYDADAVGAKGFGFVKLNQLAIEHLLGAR
Actinoplanes missouriensis glucose isomerase variant T90S (Actinoplanes missouriensis 431; T90S), sequence (chain, as listed by the source T90S T90S): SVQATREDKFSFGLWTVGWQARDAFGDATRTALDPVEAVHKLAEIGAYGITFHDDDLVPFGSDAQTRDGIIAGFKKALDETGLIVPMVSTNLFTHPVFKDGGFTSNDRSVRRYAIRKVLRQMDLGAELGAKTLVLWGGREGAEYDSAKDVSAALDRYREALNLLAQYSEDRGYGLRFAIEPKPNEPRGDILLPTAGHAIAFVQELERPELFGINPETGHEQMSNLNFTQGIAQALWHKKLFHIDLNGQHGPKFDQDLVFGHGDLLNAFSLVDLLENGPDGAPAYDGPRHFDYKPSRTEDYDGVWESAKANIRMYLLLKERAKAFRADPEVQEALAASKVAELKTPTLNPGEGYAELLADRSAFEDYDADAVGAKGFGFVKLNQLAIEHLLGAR

A word on the Km: it is the substrate concentration at which the rate is half of its maximum. With “Actinoplanes missouriensis glucose isomerase variant M88SH290N (M88S/H290N) (Actinoplanes missouriensis 431; H290N/M88S)”, in series [1], the Km was determined as 14.8 mM.
The same measure, in the same setting: next, “Actinoplanes missouriensis glucose isomerase variant A25K (Actinoplanes missouriensis 431; A25K)”: 2.73 mM.
The same measure, in the same setting: next, “Actinoplanes missouriensis glucose isomerase variant M88S (Actinoplanes missouriensis 431; M88S)”: 7.6 mM; “Actinoplanes missouriensis glucose isomerase variant T90S (Actinoplanes missouriensis 431; T90S)”: 16.8 mM.
For orientation: Vmax means the top rate of the reaction or transport when substrate is in excess. As for “Actinoplanes missouriensis glucose isomerase, wild type, SEQ ID NO: 1 (Actinoplanes missouriensis 431)”, the Km in series [2] (other: 35° C., 1 mM Mn) came out at 13.2 mM; in series [2] (other: xylose, 35° C., 10 mM Mg2+), 4.8 mM. In series [2] (other: 35° C., 1 mM Mn), the Vmax is 8.6 µmol/min/mg.
As for “Actinoplanes missouriensis glucose isomerase variant V135Q (Actinoplanes missouriensis 431; V135Q)”, in series [1], the Km was found to be 56 mM.
On the same count and under the same terms, next, “Actinoplanes missouriensis glucose isomerase variant M88SH243N (M88S/H243N) (Actinoplanes missouriensis 431; H243N/M88S)”: 11.9 mM.
Same read-out and setting: next, “Actinoplanes missouriensis glucose isomerase variant H290N (Actinoplanes missouriensis 431; H290N)”: 9.7 mM.
